Patent publication US20090068164 (published 2009)

Tests used:
[1] = molecular target: LacA-Zif268 + PE1A-LacB (split beta-lactamase SEER pair) (artificial, UniProt O73693; SEQ:189-286,SEQ:1-88); experiment: split beta-lactamase reassembly on cognate target
[2] = molecular target: NGFP-Zif268 + CGFP-MBD2 (human MBD2 residues 147-215; mCpG-SEER pair) (artificial, UniProt P08046;Q9UBB5 P08046:333-419,Q9UBB5:147-215); experiment: split GFP reassembly; used as reference (relative fluorescence 1) for specificity set; Zn buffer, 4 C

B1: Zif-0-PE1A (structured_DNA)
DNA: GGCGTTATTTATCGCCCACGCGGGTTTTCCCGCGTGGGCGATAAATAACGCC
B1: binds [1].

B2: mCpG-Zif268 (dsDNA)
DNA 1: GCGTACGTAGGACGATACGCCCACGCCACCG
DNA 2: CGGTGGCGTGGGCGTATCGTCCTACGTACGC
modifications: 5mC at the CpG on both strands (GTAmCGTA)
B2: binds [2].
